In publication PMC5053157, “Crystal structure of yeast monothiol glutaredoxin Grx6 in complex with a glutathione-coordinated [2Fe–2S] cluster” (Acta Crystallographica. Section F, Structural Biology …, 2016):
Several values for one entry are separate records, joined by “and”; a condition that tells them apart may be missing. Equal values may be shown once.

Biological target: the molecule itself
Assay: SEC; HiLoad 16/60 Superdex 75; 20 mM NaCl, 50 mM Tris-HCl pH 8.0, 2 mM EDTA, 10 mM GSH; apparent molecular masses

B1: Saccharomyces cerevisiae glutaredoxin Grx6 without the signal peptide (residues Lys37-Asn231) (enzyme)
chain: KEETSKAFSTNMDNMAGGSSREYAAMPTSTTNKGSSEVDEEINEIKQKVGLQQPIASVDDSLSAIKNDKGSRITKAFNVQKEYSLILDLSPIIIFSKSTCSYSKGMKELLENEYQFIPNYYIIELDKHGHGEELQEYIKLVTGRGTVPNLLVNGVSRGGNEEIKKLHTQGKLLESLQVWSDGKFSVEQREKPSNNLEHHHHHH
stoichiometry N: 2 and 4
